For one assay, the target named is T1, TDP-224 peptide (human).
T1 construct: 8-mer of human TDP-43; same ELISA method as for the biotinylated 15-mers
T1 peptide: KPFRAFAF
Put plainly: indirect ELISA, 8-mer peptide library. The protocol:
(§1) Serum-free supernatants were harvested from stable hybridomas. The supernatants containing antibodies of interest were then screened by an indirect ELISA assay to determine epitopes. Epitopes were mapped using a library of TDP-43 15-mer peptides. Briefly, 96-well streptavidin-coated 96-well ELISA plates were incubated with 5 μg/mL of biotinylated 15-mer peptides spanning the amino acids (aa) 199-285 of human TDP-43 with 9 aa offset and 6 aa overlap. Plates were washed thoroughly with 0.05% Tween-20/PBS and then blocked with 1% bovine serum albumin (BSA) in 0.05% Tween-20/PBS for 1 hour at 37° C. The antibody contained in the hybridoma supernatant was then added at the indicated dilutions, and incubated for 2 hours at 37° C. after which the plates were washed as described previously. An AP-conjugated anti-mouse IgG secondary antibody (Jackson ImmunoResearch Laboratories, United Kingdom) was added at 1/1000 dilution in 0.05% Tween-20/PBS for 1 hour at 37° C. After the final wash, plates were incubated with pNPP (Sigma-Aldrich, Switzerland) an AP substrate solution, and read at 405 nm using an ELISA plate reader (Tecan).
(§2) Furthermore, antibodies were tested using an indirect ELISA on a peptide library of 8-mer peptides with 7 aa overlap covering the sequence of human TDP-43 from aa 210 to aa 231, using the same ELISA method as describe previously in this section.
On the technique in general: ELISA stands for enzyme-linked immunosorbent assay.

A further assay addresses T2, TDP-216 peptide (human).
T2 construct: 8-mer of human TDP-43; same ELISA method as for the biotinylated 15-mers
T2 peptide: DVMDVFIP
Description: indirect ELISA, 8-mer peptide library. The protocol: as §1, §2

The target of the next assay is T3, TDP-210 peptide (human).
T3 construct: 8-mer of human TDP-43; same ELISA method as for the biotinylated 15-mers
T3 peptide: FFSQYGDV
Put plainly: indirect ELISA, 8-mer peptide library. How it is done:
as §1, §2

For another assay, the target named is T4, TDP-219 peptide (human).
T4 construct: 8-mer of human TDP-43; same ELISA method as for the biotinylated 15-mers
T4 peptide: DVFIPKPF
Put plainly: indirect ELISA, 8-mer peptide library. How it is done:
as §1, §2

The target of the next assay is T5, TDP-211 peptide (human).
T5 construct: 8-mer of human TDP-43; same ELISA method as for the biotinylated 15-mers
T5 peptide: FSQYGDVM
Description: indirect ELISA, 8-mer peptide library. The protocol: as §1, §2

For another assay, the target named is T6, TDP-223 peptide (human).
T6 construct: 8-mer of human TDP-43; same ELISA method as for the biotinylated 15-mers
T6 peptide: PKPFRAFA
Put plainly: indirect ELISA, 8-mer peptide library. How it is done: as §1, §2

The target of a further assay is T7, TDP-213 peptide (human).
T7 construct: 8-mer of human TDP-43; same ELISA method as for the biotinylated 15-mers
T7 peptide: QYGDVMDV
Description: indirect ELISA, 8-mer peptide library. The protocol:
as §1, §2

The target in another assay is T8, TDP-214 peptide (human).
T8 construct: 8-mer of human TDP-43; same ELISA method as for the biotinylated 15-mers
T8 peptide: YGDVMDVF
Put plainly: indirect ELISA, 8-mer peptide library. How it is done:
as §1, §2

The next assay addresses T9, TDP-217 peptide (human).
T9 construct: 8-mer of human TDP-43; same ELISA method as for the biotinylated 15-mers
T9 peptide: VMDVFIPK
Put plainly: indirect ELISA, 8-mer peptide library. The protocol: as §1, §2

A further assay addresses T10, TDP-218 peptide (human).
T10 construct: 8-mer of human TDP-43; same ELISA method as for the biotinylated 15-mers
T10 peptide: MDVFIPKP
Description: indirect ELISA, 8-mer peptide library. The protocol:
as §1, §2

In another assay the target is T11, TDP-220 peptide (human).
T11 construct: 8-mer of human TDP-43; same ELISA method as for the biotinylated 15-mers
T11 peptide: VFIPKPFR
Put plainly: indirect ELISA, 8-mer peptide library. How it is done:
as §1, §2

The target in another assay is T12, TDP-222 peptide (human).
T12 construct: 8-mer of human TDP-43; same ELISA method as for the biotinylated 15-mers
T12 peptide: IPKPFRAF
Description: indirect ELISA, 8-mer peptide library. How it is done:
as §1, §2

In the next assay the target is T13, TDP-221 peptide (human).
T13 construct: 8-mer of human TDP-43; same ELISA method as for the biotinylated 15-mers
T13 peptide: FIPKPFRA
Put plainly: indirect ELISA, 8-mer peptide library. How it is done:
as §1, §2

The target in the next assay is T14, TDP-212 peptide (human).
T14 construct: 8-mer of human TDP-43; same ELISA method as for the biotinylated 15-mers
T14 peptide: SQYGDVMD
Put plainly: indirect ELISA, 8-mer peptide library. How it is done: as §1, §2

A further assay has as its target T15, TDP-1 peptide (human).
T15 construct: Immunogen peptide; conjugated to Luminex beads in the assay; also called TDP-43 aa 212-272
T15 peptide: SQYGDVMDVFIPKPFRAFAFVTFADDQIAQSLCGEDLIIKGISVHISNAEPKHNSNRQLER
Put plainly: Luminex bead assay, antibody serial dilution, TDP-1 peptide beads.

In assay [1] the target is T16, recombinant human full-length TDP-43 (human, UniProt Q13148 1-414).
T16 construct: Recombinant full-length protein; also called FL TDP-43; recFL TDP-43
Put plainly: SPR avidity (Biacore T200), TDP-43 monomer immobilised, antibody as analyte, 1:1 model. How it is done:
(§3) Avidity measurements were performed on an SPR instrument (Biacore T200, GE Healthcare Life Sciences) using CM5 Series S sensor chips. Recombinant human FL TDP-43 monomers or aggregated recombinant human FL TDP-43 was immobilized on a CM5 chip using amine coupling, injecting at a flow rate of 5 μl/min for 420 seconds. Conditions were optimized so that less than 200 RU protein was immobilized. Binding of the antibodies and the control antibody (2E2-D3) were obtained by injecting at: 1.37, 4.11, 12.33, 37, 111, and 333 nM in 1×PBS P+ at a flow rate of 50 μl/min for 90 s contact time and 600 s dissociation phase, with three regeneration cycles of the ligand surface by 10 mM Glycine-HCl (pH 1.7). Kinetics were analyzed using a 1:1 fitting model (see FIG. 8).

A further assay has as its target T17, TDP-3 peptide (human).
T17 construct: Irrelevant control peptide; conjugated to Luminex beads in the assay; also called TDP-43 aa 310-370; irrelevant target
T17 peptide: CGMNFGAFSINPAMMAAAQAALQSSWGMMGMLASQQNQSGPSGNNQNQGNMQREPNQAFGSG
Put plainly: Luminex bead assay, TDP-3 peptide beads (irrelevant target).

The next assay concerns the target T18, TDP-215 peptide (human).
T18 construct: same ELISA method as for the biotinylated 15-mers
T18 peptide: GDVMDVFI
Put plainly: indirect ELISA, 8-mer peptide library, OD 405 nm. The protocol: as §1, §2

Assay [2] deals with T19, aggregated recombinant human FL TDP-43 (human, UniProt Q13148 1-414).
T19 construct: also called TDP-43 aggregates
Description: SPR avidity (Biacore T200), aggregated TDP-43 immobilised, antibody as analyte, 1:1 model. The protocol: as §3
In general terms: Surface plasmon resonance follows binding to a sensor surface in real time, without labels.

The next assay addresses T20, BSA (bovine, UniProt P02769).
T20 construct: not specified; also called bovine serum albumin
Description: indirect ELISA, control coat in the 15-mer series, hybridoma supernatant.

Another assay concerns the target T21, TP-24 peptide (human, also: biotinylated, site not given here).
T21 construct: 15-mer of human TDP-43 from the library spanning aa 199-285; captured on streptavidin plates
T21 peptide: REFFSQYGDVMDVFI
Description: indirect ELISA, biotinylated 15-mer peptide on streptavidin plate, hybridoma supernatant. How it is done:
as §1

The target of another assay is T22, TP-25 peptide (human, also: biotinylated, site not given here).
T22 construct: 15-mer of human TDP-43 from the library spanning aa 199-285; captured on streptavidin plates
T22 peptide: VMDVFIPKPFRAFAF
The assay is described as above. The protocol: as §1

Assay [3] has as its target T16, recombinant human full-length TDP-43. Put plainly: Luminex bead assay, antibody serial dilution, FL TDP-43 beads.

Where no end group is shown, it is not given here.

T20 sequence (P02769 25-607 limits assumed): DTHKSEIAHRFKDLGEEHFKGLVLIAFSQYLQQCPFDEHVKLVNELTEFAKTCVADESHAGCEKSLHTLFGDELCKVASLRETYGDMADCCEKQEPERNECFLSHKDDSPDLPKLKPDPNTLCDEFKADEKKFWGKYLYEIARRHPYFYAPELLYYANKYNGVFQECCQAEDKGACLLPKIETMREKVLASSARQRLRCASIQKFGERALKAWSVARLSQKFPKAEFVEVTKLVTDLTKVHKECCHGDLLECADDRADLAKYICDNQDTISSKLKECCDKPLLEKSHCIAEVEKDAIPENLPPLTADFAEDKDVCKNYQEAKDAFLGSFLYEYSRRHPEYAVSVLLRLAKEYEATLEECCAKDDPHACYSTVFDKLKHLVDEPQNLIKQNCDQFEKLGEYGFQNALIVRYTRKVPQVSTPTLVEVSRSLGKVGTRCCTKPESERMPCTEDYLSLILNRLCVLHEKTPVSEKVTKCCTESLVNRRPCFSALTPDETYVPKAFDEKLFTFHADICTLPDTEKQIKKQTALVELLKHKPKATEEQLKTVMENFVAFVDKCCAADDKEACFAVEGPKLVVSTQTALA
T19 sequence (Q13148 whole entry): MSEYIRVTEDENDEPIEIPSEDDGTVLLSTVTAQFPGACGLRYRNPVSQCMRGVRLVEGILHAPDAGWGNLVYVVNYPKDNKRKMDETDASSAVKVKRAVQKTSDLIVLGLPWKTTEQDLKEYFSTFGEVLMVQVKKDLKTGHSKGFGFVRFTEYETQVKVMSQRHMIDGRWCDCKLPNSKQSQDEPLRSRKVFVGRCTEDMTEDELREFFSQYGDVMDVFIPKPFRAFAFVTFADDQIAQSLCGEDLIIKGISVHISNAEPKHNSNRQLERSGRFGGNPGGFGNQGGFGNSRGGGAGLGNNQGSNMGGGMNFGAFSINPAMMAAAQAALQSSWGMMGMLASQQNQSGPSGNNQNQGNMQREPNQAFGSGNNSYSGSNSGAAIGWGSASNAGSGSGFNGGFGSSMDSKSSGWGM
T16 sequence (Q13148 whole entry): as above

B1: ACI-7062-406E3-Ab1 (antibody, IgG2a, V domains shown)
VH: QVTLKESGPAILQPSQTLSLTCSFSGFSLTTYGIGVGWIRQPSGKGLEWLAHIWWNDNKYYNTALKSRLTVSKDTSNNQVFLKIASVDTADTATYYCARVYGNLYYFAYWGQGTTLTVSS
VL: DVLMTQTPLSLPVSLGDRASISCRSSQSIVHRSGNTYLEWYLQKPGQSPKLLIYKVSNRFSGVPDRFSGSGSGTDFTLKISRVEAEDLGVYYCFQGSHVPTFGAGTKLELKR
notes: also called 406E3D5; clone 5
One may read the EC50 as the concentration giving half of the maximal effect. For B1, the binding result with TDP-224 peptide, in the assay with TDP-216 peptide, with TDP-210 peptide, with TDP-219 peptide, with TDP-211 peptide and with TDP-223 peptide was “no binding” throughout. The binding result with TDP-213 peptide, with TDP-214 peptide, with TDP-217 peptide, in the assay with TDP-218 peptide, in the assay with TDP-220 peptide and with TDP-222 peptide was “no binding” each time. Besides, the binding result with TDP-221 peptide is recorded as “no binding”; in the assay with TDP-212 peptide, “no binding”; with TDP-3 peptide it was “no binding”; in the assay with TDP-215 peptide, “binds”; in the assay with BSA, “no binding”. In addition, the EC50 (with TDP-1 peptide; in assay [3]) was less than 0.01 nM in each case. Moreover, the Kd in [1] was found to be 0.8 nM; in assay [2] it was 0.2 nM. In addition, the OD with TP-24 peptide is 3 O.D. (405 nm); with TP-25 peptide it was 1 O.D. (405 nm).

B2: ACI-7062-410H3-Ab1 (antibody, IgG1, V domains shown)
VH: DVQLVESGGGLVQPGGSRRLSCAASGFTFSSFGMHWVRQAPEKGLEWVAYIRSGSDIIYYADSVKGRFTISRDNPENTLFLQMTSLRSEDTAMYYCARSGTTVPFDYWGQGTSLTVSS
VL: DIVMTQSPSSLAMSVGQKVTMSCKSSQSLLNSGNQKNYLAWYQQKPGQSPELLLYFASTRASGVPDRFIGSGSGTDFTLTISSVQAEDLADYFCQQHYSIPLTFGAGTKLELKR
notes: also called 410H3B9; clone 7
Take B2: the binding result in the assay with TDP-224 peptide, with TDP-210 peptide, with TDP-219 peptide, with TDP-211 peptide, with TDP-223 peptide and with TDP-213 peptide was “no binding” in each case. Further, the binding result with TDP-214 peptide, in the assay with TDP-217 peptide, in the assay with TDP-218 peptide, with TDP-220 peptide, with TDP-222 peptide and in the assay with TDP-221 peptide was “no binding” throughout. Moreover, the binding result with TDP-212 peptide is listed as “no binding”; with TDP-3 peptide it was “no binding”; with TDP-215 peptide, “binds”; with BSA, “no binding”. Also, the EC50 with TDP-1 peptide is less than 0.01 nM; in assay [3] it was 0.03 nM. Moreover, the Kd in assay [1] is 6 nM; in [2], 19.2 nM. Further, the OD with TP-24 peptide is 3.8 O.D. (405 nm); with TP-25 peptide it was 0.8 O.D. (405 nm).

B3: ACI-7062-412A7-Ab1 (antibody, IgG2b, V domains shown)
VH: DVQLVESGGGLVQPGGSRRLSCAASGFTFSSFGMHWVRQAPEKGLEWVAYIRSGSDIIYYADSVKGRFTISRDNPENTLFLQMTSLRSEDTAMYYCARSGTTVPFDYWGQGTSLTVSS
VL: DIVMTQSPSSLAMSVGQKVTMSCKSSQSLLNSGNQKNYLAWYQQKPGQSPELLLYFASTRASGVPDRFIGSGSGTDFTLTISSVQAEDLADYFCQQHYSIPLTFGAGTKLELKR
notes: also called 412A7B7; clone 9
Turning to B3, the binding result with TDP-224 peptide, with TDP-210 peptide, with TDP-219 peptide, with TDP-211 peptide, with TDP-223 peptide and with TDP-213 peptide was “no binding” in each case. Also, the binding result with TDP-214 peptide, in the assay with TDP-217 peptide, with TDP-218 peptide, with TDP-220 peptide, with TDP-222 peptide and with TDP-221 peptide was “no binding” each time. Also, the binding result is recorded as “no binding” in the assay with TDP-212 peptide, “no binding” with TDP-3 peptide, “binds” with TDP-215 peptide and “no binding” with BSA. The figures for the EC50 (with TDP-1 peptide; in assay [3]) were less than 0.01 nM and 0.03 nM, respectively. Moreover, the figures for the Kd in assay [1] and in [2] were 1 nM and 0.3 nM, respectively. Besides, the OD in the assay with TP-24 peptide is 4 O.D. (405 nm); with TP-25 peptide it was 1.4 O.D. (405 nm).

Source of the values: US20220025023A1 (AC IMMUNE, published 2022).
